Experiments:
[1] = Hydrodynamic properties of SPIONs by dynamic light scattering; format: physicochemical; conditions: medium PBS; for HDR Z-average (hydrodynamic size): dynamic light scattering
Description: Hydrodynamic properties of SPIONs were measured after each conjugation step to monitor colloidal stability (Table 2).

miR-376b = assay: Flag immunoprecipitation of AGO2 and its domains, miRNA level by Taqman QPCR; format: binding; conditions: flag tagged proteins overexpressed in HEK293T cells, immunoprecipitated with flag beads
Text: The miRNA is anchored in AGO2 protein and makes several kinks and turns along the binding groove (Elkayam et al. Cell. 2012. 150:100-110). A binding pocket composed of residues from PAZ and PIWI domains as previously observed interacts with miRNA (Boland et al. EMBO Rep. 2010. 11:522-527; Lingel et al. Nat Struct Mol Biol. 2004. 11:576-577; Schirle et al. Science. 2014. 346:608-613; Wang et al. Nature. 2008. 456:209-213). To determine which domain of AGO2 protein have the key role in miRNA binding affinity, flag tagged AGO2 protein and its domains, PAZ and PIWI, were overexpressed in HEK293T cells in the presence or absence of miR-376b overexpression and they immunoprecipitated with flag beads. […] It can be concluded that each domain of AGO2 protein is essential for the highest binding affinity (FIG. 10).

Substance | HDR Z-average (hydrodynamic size) [1] [nm] | PDI [1] | Zeta Potential [1] [mV] | miRNA binding affinity (miR-376b) (miR-376b)
SPION/AGO2/PEG-MI: SPION/AGO2 reacted with NH2-PEG-Mal (2000 Da) linker | 30 | 0.59 | −21 | –
full length AGO2 protein: flag tagged full length Argonaute-2 protein overexpressed in HEK293T cells | – | – | – | greater affinity
PAZ: flag tagged AGO2 fragment, aa1-480 | – | – | – | partial role
SPION/AGO2: AGO2 protein covalently attached to SPION/PAA via amide bond (EDC/NHS) | 20 | 0.43 | −23 | –
